In the supplement of paper PMC10065799, “High-throughput profiling of sequence recognition by tyrosine kinases and SH2 domains using bacterial peptide display” (eLife, 2023):
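Also: 11-residue human phosphosite peptides and single-mutation variants displayed on the E. coli surface, counted by deep sequencing, each peptide's frequency after selection divided by its frequency in the unselected input library; frequency after pTyr selection over input frequency; kinase dosed for 20-30% of maximal phosphorylation in three min.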

These sequences were tested against Jak2 (UniProt O60674) (assay: phosphorylation enrichment, bacterial display (enrichment ratio); higher = better substrate or ligand; peptides without Tyr show the background).
Jak2, sequence (O60674 whole entry, looked up): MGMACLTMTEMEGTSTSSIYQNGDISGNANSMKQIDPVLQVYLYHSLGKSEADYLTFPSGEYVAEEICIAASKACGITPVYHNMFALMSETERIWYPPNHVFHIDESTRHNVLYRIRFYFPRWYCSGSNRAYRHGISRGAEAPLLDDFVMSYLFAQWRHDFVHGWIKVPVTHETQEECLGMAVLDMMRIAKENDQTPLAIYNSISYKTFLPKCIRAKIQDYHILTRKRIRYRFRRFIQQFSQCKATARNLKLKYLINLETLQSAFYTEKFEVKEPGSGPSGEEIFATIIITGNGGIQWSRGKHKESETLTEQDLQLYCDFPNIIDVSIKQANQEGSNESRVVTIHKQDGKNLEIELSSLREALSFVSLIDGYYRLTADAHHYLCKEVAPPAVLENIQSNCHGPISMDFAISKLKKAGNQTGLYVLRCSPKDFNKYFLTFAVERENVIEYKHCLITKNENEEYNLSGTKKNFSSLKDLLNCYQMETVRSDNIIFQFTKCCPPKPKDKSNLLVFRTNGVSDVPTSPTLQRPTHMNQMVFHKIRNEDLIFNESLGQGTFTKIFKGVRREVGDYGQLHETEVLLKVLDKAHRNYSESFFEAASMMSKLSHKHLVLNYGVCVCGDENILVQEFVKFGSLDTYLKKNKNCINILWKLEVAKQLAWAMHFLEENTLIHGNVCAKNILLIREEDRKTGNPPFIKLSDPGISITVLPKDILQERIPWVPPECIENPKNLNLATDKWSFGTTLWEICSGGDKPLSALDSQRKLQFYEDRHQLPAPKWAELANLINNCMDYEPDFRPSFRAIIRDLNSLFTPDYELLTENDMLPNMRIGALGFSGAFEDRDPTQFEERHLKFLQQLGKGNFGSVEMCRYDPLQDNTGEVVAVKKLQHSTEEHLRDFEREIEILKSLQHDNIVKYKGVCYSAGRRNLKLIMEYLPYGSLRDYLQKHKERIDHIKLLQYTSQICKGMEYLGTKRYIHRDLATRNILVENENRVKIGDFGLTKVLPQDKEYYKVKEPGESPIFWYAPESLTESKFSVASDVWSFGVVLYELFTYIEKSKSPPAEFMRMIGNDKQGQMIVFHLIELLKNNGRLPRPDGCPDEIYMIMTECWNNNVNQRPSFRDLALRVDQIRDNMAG
Sequence LKGQVYILGGE [ASS1_Y359_R363G] has a phosphorylation enrichment of 1.62.
Sequence IKIMGYFIRTI [IDS_Y490_S491F] has a phosphorylation enrichment of 0.93.
EMFNPYFGLFE [NEDD4L_Y679_YF] showed a phosphorylation enrichment of 8.21.
In the case of ATPSRYMTFLH [DYNC2H1_Y2872], the phosphorylation enrichment was 0.656.
YGTAQYCCRMG [LRRK2_Y2023_I2020T] gave a phosphorylation enrichment of 0.506.
QKTGDYYDLYG [PTPN11_Y62_N58K] gave a phosphorylation enrichment of 2.24.
KRNSLYSFSDH [CCDC82_Y331_Q327R] was tested, and the phosphorylation enrichment was 0.416.
Work on PSQRRYVYYYS [PTEN_Y174] yielded a phosphorylation enrichment of 1.13.
RNLLIYTEFGK [HGD_Y166_G161R] gave a phosphorylation enrichment of 0.997.
With SVGGCYEQLFV [MC4R_Y41_D37V] the phosphorylation enrichment was 1.14.
RWHEGYRQTPR [CD44_Y412_K417R] was tested, and the phosphorylation enrichment was 0.539.
HNLDYYKKTTN [FGFR3_Y648] gave a phosphorylation enrichment of 0.632.
In the case of TTKGAYSLSIR [YES1_Y194], the phosphorylation enrichment was 0.614.
Sequence KRRGPYEMSPS [PLPP7_Y172_T174M] has a phosphorylation enrichment of 0.459.
Sequence KGEDFYCVTCP [FHL1_Y149_H154P] has a phosphorylation enrichment of 1.33.
TRSFKCLLLSM [NF1_Y491_Y491C_YF] showed a phosphorylation enrichment of 1.09.
Work on HYPDVYAWEQL [ALX3_Y181_R183W] yielded a phosphorylation enrichment of 0.847.
EILLSYLRTGY [TGM1_Y365] gave a phosphorylation enrichment of 1.4.
QRDSSYFWEIE [RAF1_Y340_YF] was tested, and the phosphorylation enrichment was 3.31.
Work on WSQAMYPDLGP [STARD8_Y330_R327Q] yielded a phosphorylation enrichment of 0.765.
AKKKMYSHKTK [AGXT_Y231_R233H] showed a phosphorylation enrichment of 3.12.
GRKTLYSFFSP [UNG_Y8_Q4R] was tested, and the phosphorylation enrichment was 0.91.
In the case of GSERRYSREGG [PTPRN2_Y139], the phosphorylation enrichment was 0.45.
Sequence KACKHYLTTRT [ZBTB5_Y118] has a phosphorylation enrichment of 0.978.
In the case of GQLIFYAPPEW [CNTN6_Y315], the phosphorylation enrichment was 1.5.
IDFARYWHGDD [MMP11_Y162] was tested, and the phosphorylation enrichment was 0.639.
In the case of VSFDEYRFRSF [CFTR_Y515_V520F_YF], the phosphorylation enrichment was 1.11.
With QLATEYVFSDF [PANX1_Y10] the phosphorylation enrichment was 1.57.
YRRITYHNWRH [PDE6B_Y556] was tested, and the phosphorylation enrichment was 0.585.
VTRANYFIRDE [GNAS_Y339_K338N] gave a phosphorylation enrichment of 0.845.
For FIGRIYLFLTK [GARS1_Y414_YF], the phosphorylation enrichment was 1.38.
In the case of DKTGEYPVPLT [ACADM_Y73_I78T], the phosphorylation enrichment was 0.649.
KNKKDYYDMYE [SLC26A3_Y526] showed a phosphorylation enrichment of 0.67.

Each sequence was assayed on Fer (mouse) in the same assay as above.
LKGQVYILGGE [ASS1_Y359_R363G] gave a phosphorylation enrichment of 1.02.
In the case of IKIMGYFIRTI [IDS_Y490_S491F], the phosphorylation enrichment was 0.547.
Work on EMFNPYFGLFE [NEDD4L_Y679_YF] yielded a phosphorylation enrichment of 2.66.
For ATPSRYMTFLH [DYNC2H1_Y2872], the phosphorylation enrichment was 0.457.
YGTAQYCCRMG [LRRK2_Y2023_I2020T] was tested, and the phosphorylation enrichment was 0.603.
QKTGDYYDLYG [PTPN11_Y62_N58K] was tested, and the phosphorylation enrichment was 0.586.
KRNSLYSFSDH [CCDC82_Y331_Q327R] showed a phosphorylation enrichment of 0.829.
PSQRRYVYYYS [PTEN_Y174] was tested, and the phosphorylation enrichment was 0.503.
RNLLIYTEFGK [HGD_Y166_G161R] gave a phosphorylation enrichment of 0.827.
For SVGGCYEQLFV [MC4R_Y41_D37V], the phosphorylation enrichment was 7.02.
With RWHEGYRQTPR [CD44_Y412_K417R] the phosphorylation enrichment was 0.613.
HNLDYYKKTTN [FGFR3_Y648] showed a phosphorylation enrichment of 0.539.
In the case of TTKGAYSLSIR [YES1_Y194], the phosphorylation enrichment was 0.383.
For KRRGPYEMSPS [PLPP7_Y172_T174M], the phosphorylation enrichment was 0.345.
KGEDFYCVTCP [FHL1_Y149_H154P] showed a phosphorylation enrichment of 2.65.
TRSFKCLLLSM [NF1_Y491_Y491C_YF] was tested, and the phosphorylation enrichment was 0.496.
HYPDVYAWEQL [ALX3_Y181_R183W] showed a phosphorylation enrichment of 13.2.
Sequence EILLSYLRTGY [TGM1_Y365] has a phosphorylation enrichment of 0.548.
QRDSSYFWEIE [RAF1_Y340_YF] was tested, and the phosphorylation enrichment was 0.813.
In the case of WSQAMYPDLGP [STARD8_Y330_R327Q], the phosphorylation enrichment was 0.475.
AKKKMYSHKTK [AGXT_Y231_R233H] showed a phosphorylation enrichment of 1.12.
GRKTLYSFFSP [UNG_Y8_Q4R] gave a phosphorylation enrichment of 3.82.
In the case of GSERRYSREGG [PTPRN2_Y139], the phosphorylation enrichment was 0.386.
Sequence KACKHYLTTRT [ZBTB5_Y118] has a phosphorylation enrichment of 0.534.
For GQLIFYAPPEW [CNTN6_Y315], the phosphorylation enrichment was 2.04.
IDFARYWHGDD [MMP11_Y162] showed a phosphorylation enrichment of 0.799.
VSFDEYRFRSF [CFTR_Y515_V520F_YF] gave a phosphorylation enrichment of 0.502.
Sequence QLATEYVFSDF [PANX1_Y10] has a phosphorylation enrichment of 0.424.
For YRRITYHNWRH [PDE6B_Y556], the phosphorylation enrichment was 0.452.
For VTRANYFIRDE [GNAS_Y339_K338N], the phosphorylation enrichment was 0.45.
Work on FIGRIYLFLTK [GARS1_Y414_YF] yielded a phosphorylation enrichment of 0.707.
Work on DKTGEYPVPLT [ACADM_Y73_I78T] yielded a phosphorylation enrichment of 0.397.
KNKKDYYDMYE [SLC26A3_Y526] showed a phosphorylation enrichment of 0.543.
